Results from publication PMC11432006, “Functional Divergence in the Affinity and Stability of Non-Canonical Cysteines and Non-Canonical Disulfide Bonds: Insights from a VHH and VNAR Study” (International Journal of Molecular Sciences, 2024).

Molecular target: T1, GFP-BC2-tag (Homo sapiens (beta-catenin-derived …, UniProt P35222))
T1 construct: also called BC2 peptide
T1 chain: PDRKAAVSHWQQ
Experiment: SPR; Biacore 8k; antigen (lysozyme or GFP-BC2-tag) amine-coupled to a CM5 chip, single-domain antibody flowed over at 30 µL/min; running buffer 137 mM NaCl, 2.7 mM KCl, 10 mM Na2HPO4, 1.8 mM KH2PO4 pH 7.5, room temperature; 1:1 Langmuir model
Conditions: both partners purified

- binding result: no binding (tested: 5000 nM)
B1: BC2-Nb_(C55A_C110S) (VHH)
VHH: QVQLVESGGGLVQPGGSLTLSCTASGFTLDHYDIGWFRQAPGKEREGVSAINNSDDDTYYADSVKGRFTIFMNNAKDTVYLQMNSLKPEDTAIYYCAEARGSKRGRYEYDFWGQGTQVTVSS
notes: also called BC2-Nb mutant
